Results on 1 molecule are retold here after patent publication US20220259318A1 (Hoffmann-La Roche, published 2022).

As usually defined, the EC50 is the concentration that produces a half-maximal response.

The target in experiment [1] is T1, human GPRC5D (human, UniProt Q9NZD1 1-345). The experiment in a line: cell-based or functional assay.
Experiment [2] concerns the target T1, human GPRC5D. The experiment in a line: flow cytometry on RPMI-8226 cells, assay replicate 1. The procedure: (§1) Cells were re-suspended in PBS at 0.5 Mio cells per ml. Next, 0.05 Mio cells were plated per well of a round-bottom 96-well-plate, centrifuged and supernatants were discarded. Cells were stained with zombie aqua viability stain (BioLegend #423102, pre-diluted 1:400), containing Fc blocking (BioLegend #422302, prediluted 1:400) for 20 minutes in a total volume of 50 ul per well. […] Assay plates were centrifuged and supernatants were discarded.
(§2) Thereafter, cells were resuspended by smooth vortexing and incubated for another 30 min at 4° C. in a total of 25 μl per well, containing 500 nM of the secondary antibody (aPGLALA mulG2b Alexa 647, produced inhouse) in FACS buffer. Cells were washed once and analyzed on a BD flow cytometer, equipped with FACS Diva. Binding curves and EC50 values were obtained using GraphPadPrism6. The EC50 values of assay replicate 1 correspond to the graphs shown in FIG. 25A, FIG. 25B and FIG. 25C. The EC50 values of assay replicate 2 correspond to the graphs shown in FIG. 25D, FIG. 25E and FIG. 25F. The EC50 values of assay replicate 3 correspond to the graphs shown in FIG. 25G, FIG. 25H and FIG. 25I.
(In general: A flow cytometer gives signals particle by particle.)

Experiment [3] has as its target T1, human GPRC5D. Description: flow cytometry on NCI-H929 cells, assay replicate 1. The procedure:
as §1, §2

In experiment [4] the target is T1, human GPRC5D. The experiment in a line: flow cytometry on RPMI-8226 cells, assay replicate 2. How it is done:
as §1, §2

In experiment [5] the target is T1, human GPRC5D. The experiment in a line: flow cytometry on NCI-H929 cells, assay replicate 3. The procedure: as §1, §2
Experiment [6] concerns the target T2, human CD3 (human, UniProt P07766 23-207).
T2 construct: Expressed on Jurkat-NFAT reporter cells as part of the TCR/CD3 complex; also called hCD3; CD3 epsilon
Description: flow cytometry on Jurkat-NFAT cells; paragraph 550 says these values were falsely calculated by a factor of 10 (too low). How it is done:
(§3) To measure the binding to GPRC5D, we performed a flow cytometry-based binding assay on reported multiple myeloma cell lines (Lombardi et al., Molecular characterization of human multiple myeloma cell lines by integrative genomics: insights into the biology of the disease; Genes Chromosomes Cancer. 2007 March; 46(3):226-38). The cell line NCI-H929 (ATCC® CRL-9068) was cultured in RPMI 1640 with Glutamax medium (Gibco) supplemented with 10% FBS, 1× Penicillin/Streptomycin (Gibco), 1× Sodium Pyruvate (Gibco) and 50 μM beta-Mercaptoethanol (Gibco). Jurkat-NFAT reporter cells (a CD3-expressing human acute lymphatic leukemia reporter cell line with a NFAT promoter, GloResponse Jurkat NFAT-RE-luc2P, Promega #CS176501) were cultured in RPMI 1640, containing 2 g/l Glucose, 2 g/l NaHCO₃, 10% FCS, 25 mM HEPES, 2 mM L-Glutamine, 1×NEAA, 1× Sodium-pyruvate and 200 μg/ml Hygromycin B.
(§4) Flow cytometry acquisition was performed on a custom-designed BD Biosciences Fortessa and analyzed using BD Diva. EC50 values were calculated, using GraphPad Prism software.

Experiment [7] deals with T1, human GPRC5D. Description: flow cytometry on OPM-2 cells, assay replicate 2. How it is done: as §1, §2
Experiment [8] concerns the target T1, human GPRC5D. Description: cell-based or functional assay. The source holds these as a separate data set.
The target of experiment [9] is T1, human GPRC5D. Description: flow cytometry on RPMI-8226 cells, assay replicate 3. The procedure:
as §1, §2

Experiment [10] has as its target T1, human GPRC5D. Description: flow cytometry on NCI-H929 cells; paragraph 550 says these values were falsely calculated by a factor of 10 (too low). The procedure: as §3, §4
For experiment [11], the target named is T1, human GPRC5D. The experiment in a line: flow cytometry on OPM-2 cells, assay replicate 3. The procedure: as §1, §2
Experiment [12] concerns the target T1, human GPRC5D. The experiment in a line: cell-based or functional assay. The source holds these as a separate data set.
The target in experiment [13] is T1, human GPRC5D. The experiment in a line: flow cytometry on OPM-2 cells, assay replicate 1. How it is done: as §1, §2
In experiment [14] the target is T1, human GPRC5D. The experiment in a line: cell-based or functional assay. The source holds these as a separate data set.
The target in experiment [15] is T1, human GPRC5D. Description: flow cytometry on NCI-H929 cells, assay replicate 2. How it is done:
as §1, §2

T1 sequence (Q9NZD1 whole entry): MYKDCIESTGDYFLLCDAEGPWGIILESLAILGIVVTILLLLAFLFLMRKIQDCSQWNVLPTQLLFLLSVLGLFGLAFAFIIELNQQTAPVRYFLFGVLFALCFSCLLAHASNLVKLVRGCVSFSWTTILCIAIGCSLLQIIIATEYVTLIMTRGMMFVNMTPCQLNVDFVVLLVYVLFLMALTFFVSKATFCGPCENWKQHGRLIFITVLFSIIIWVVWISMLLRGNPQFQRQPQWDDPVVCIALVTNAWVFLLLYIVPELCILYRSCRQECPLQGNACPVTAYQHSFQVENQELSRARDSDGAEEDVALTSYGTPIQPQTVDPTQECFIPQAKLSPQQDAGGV
T2 sequence (P07766 23-207 limits assumed): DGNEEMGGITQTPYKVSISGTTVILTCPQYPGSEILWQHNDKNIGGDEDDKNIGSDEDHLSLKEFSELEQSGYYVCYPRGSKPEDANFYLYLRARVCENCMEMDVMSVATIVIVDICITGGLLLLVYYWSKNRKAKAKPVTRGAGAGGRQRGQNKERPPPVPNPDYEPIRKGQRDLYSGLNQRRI

B1: 5E11(VH1c + VL2b)-C122-TCB (P1AE6625) (bispecific antibody, human IgG1, kappa, L234A L235A)
light 1: EIVLTQSPGTLSLSPGERATLSCRASQSVSISGINLMNWYQQKPGQQPKLLIYHASILASGIPDRFSGSGSGTDFTLTISRLEPEDFAVYYCQQTRESPLTFGQGTRLEIKRTVAAPSVFIFPPSDRKLKSGTASVVCLLNNFYPREAKVQWKVDNALQSGNSQESVTEQDSKDSTYSLSSTLTLSKADYEKHKVYACEVTHQGLSSPVTKSFNRGEC
light 2: EVQLLESGGGLVQPGGSLRLSCAASGFQFSSYAMNWVRQAPGKGLEWVSRIRSKYNNYATYYADSVKGRFTISRDDSKNTLYLQMNSLRAEDTAVYYCVRHTTFPSSYVSYYGYWGQGTLVTVSSASVAAPSVFIFPPSDEQLKSGTASVVCLLNNFYPREAKVQWKVDNALQSGNSQESVTEQDSKDSTYSLSSTLTLSKADYEKHKVYACEVTHQGLSSPVTKSFNRGEC
heavy 1: EVQLLESGGGLVQPGGSLRLSCAASGFTFSKYAMAWVRQAPGKGLEWVASISTGGVNTYYADSVKGRFTISRDNSKNTLYLQMNSLRAEDTAVYYCATHTGDYFDYWGQGTMVTVSSASTKGPSVFPLAPSSKSTSGGTAALGCLVEDYFPEPVTVSWNSGALTSGVHTFPAVLQSSGLYSLSSVVTVPSSSLGTQTYICNVNHKPSNTKVDEKVEPKSCDKTHTCPPCPAPEAAGGPSVFLFPPKPKDTLMISRTPEVTCVVVDVSHEDPEVKFNWYVDGVEVHNAKTKPREEQYNSTYRVVSVLTVLHQDWLNGKEYKCKVSNKALGAPIEKTISKAKGQPREPQVCTLPPSRDELTKNQVSLSCAVKGFYPSDIAVEWESNGQPENNYKTTPPVLDSDGSFFLVSKLTVDKSRWQQGNVFSCSVMHEALHNHYTQKSLSLSPGK
heavy 2: not shown
notes: 2+1 TCB: LC1 (anti-GPRC5D), LC2 (anti-CD3 crossed), HC1 Fc hole, HC2 Fc knob
In the case of B1, the “AUC, activation of Jurkat-NFAT reporter cells in presence of RPMI-8226 cells” value in experiment [1] was determined as 572000. Besides, the “EC50 (pM), activation of Jurkat-NFAT reporter cells in presence of RPMI-8226 cells” value in experiment [1] came out at 40 pM. Besides, the EC50 was 26.8 nM in [2]; 75.8 nM in experiment [3]; 20.4 nM in experiment [4]; roughly 158 nM in experiment [5]; 11.5 nM in [6]; 75.5 nM in experiment [7]. Further, the 50% effective concentration (EC50) was 55 nM in experiment [9]; 1.15 nM in [10]; 54.2 nM in experiment [11]; 34.5 nM in experiment [13]; roughly 123 nM in experiment [15]. Further, the “EC50 (pM), TCB-mediated tumor cell lysis, AMO-1” value in experiment [8] was 8.3 pM. Moreover, the “EC50 (pM), TCB-mediated tumor cell lysis, IM-9” value in experiment [8] came out at 267 pM. Also, in experiment [8], the “EC50 (pM), TCB-mediated tumor cell lysis, LP-1” value amounted to 7.99 pM. The “EC50 (pM), TCB-mediated tumor cell lysis, NCI-H929” value in experiment [8] came to 0.597 pM. Besides, the “EC50 (pM), activation of autologous T-cells (CD69 on CD8 T cells) with a primary MM sample” value in [12] is 14.8 pM. The “AUC, TCB-mediated tumor cell lysis, AMO-1” value in experiment [14] came to 8.01e+07. Further, in [14], the “AUC, TCB-mediated tumor cell lysis, IM-9” value is 9.27e+06. In addition, the “AUC, TCB-mediated tumor cell lysis, LP-1” value in experiment [14] is 1.54e+07. For the same molecule, the “AUC, TCB-mediated tumor cell lysis, NCI-H929” value in experiment [14] came to 1.79e+07.
